Measured values from US20150266936A1.
Starred links: 1 amine or outer side, 2 acyl side, 3 side chain; linkers in the order of their positions; H or OH if unused. Non-standard residues stand in square brackets, D forms with d. No end group written: not given here. AO = 2-amino-3-(2-(aminooxy)acetamido)propanoic acid, O=C(CON[*:3])NC[C@H](N[*:1])C(=O)[*:2]

Experiments:
[1] = target: αvβ3, αvβ5, and α5β1 integrins on U87MG cells (human) (UniProt P06756); assay: competition binding on U87MG cells, flow cytometry; competitor 0.25 nM Alexa488-labeled EETI 2.5F; 4 °C, 10 h
[2] = target: αvβ3, αvβ5, and α5β1 integrins on U87MG cells (human) (UniProt P06756); assay: cell-based or functional assay
[3] = target: αvβ3, αvβ5, and α5β1 integrins on U87MG cells (human) (UniProt P06756); assay: ratio of IC50 values, competition binding on U87MG cells
[4] = target: αvβ3, αvβ5, and α5β1 integrins on U87MG cells (human) (UniProt P06756); assay: competition binding on U87MG cells, flow cytometry; competitor 5 nM Alexa488-labeled AgRP 7C; 4 °C, 10 h

Binder	IC50 [1]	Adhesion EC50 (nM), U87MG cell adhesion to fibronectin [2]	inhibition of U87MG proliferation, 10 nM, 72 h (AlamarBlue) [2]	inhibition of U87MG proliferation, 100 nM, 72 h (AlamarBlue) [2]	inhibition of U87MG proliferation, 500 nM, 24 h (AlamarBlue) [2]	inhibition of U87MG proliferation, 500 nM, 48 h (AlamarBlue) [2]	inhibition of U87MG proliferation, 500 nM, 72 h (AlamarBlue) [2]	inhibition of U87MG proliferation, 1000 nM, 72 h (AlamarBlue) [2]	fold increase of apparent binding affinity compared to the monomer [3]	fold more effective than the monomer in preventing U87MG cell adhesion [2]	fold more potent than Cilengitide at inhibiting U87MG cell proliferation [2]	IC50 [4]
GCPRPRGDNPPLTCKQDSDCLAGCVCGPNGFCG (designed binder) [EETI 2.5F]	1.64 nM	180 nM	15%	30%	37%	44%	50%	60%				
GCPRPRGDNPPLTC[AO]QDSDCLAGCVCGPNGFCG (designed binder, not fully specified (residue 15, bridges); ends and bridges not checked; also: homodimer: two copies joined by oxime-bonded dialdehyde linker at X15) [EETI 2.5F Dimer]	0.036 nM	8 nM	28%	52%	53%	68%	69%	70%	46 fold	100 fold	100 fold	
GCPRPRGDNPPLTC[AO]QDSDCLAGCVCGPNGFCG (designed binder, disulfide (positions not given here)) [EETI 2.5F_AO]	1.57 nM											
GCVRLHESCLGQQVPCCDPAATCYCYGRGDNDLRCYCR (designed binder, not fully specified (bridges); cysteine pairing not given here) [AgRP 7C]												13 nM
GCVRLHESCLGQQVPCCDPAATCYCYGRGDNDLRCYC[AO] (designed binder, not fully specified (residue 38, bridges); ends and bridges not checked; also: homodimer: two copies joined by oxime-bonded dialdehyde linker at X38) [AgRP 7C Dimer]									4 fold			3.2 nM
